# Biological target: CCAN (CENP-C, CENP-LN, CENP-HIKM, CENP-OPQUR, CENP-TWSX) (Homo sapiens, UniProt Q03188;Q8N0S6;Q96H22;Q9H3R5;Q92674;Q9BS16;Q9NSP4;Q9BU64;Q6IPU0;Q7L2Z9;Q71F23;Q13 …)
# Test: cryo-EM; mild cross-linking; 3.5 A; SEC on Superose 6 Increase or Agilent Bio SEC-5 1000A; buffer, salt, pH and temperature not given in the material
# Details: protein: recombinant; copies: 1;1;1;1;1;1;1;1;1;1;1;1;1;1;1;1
binder,measurement,value
native alpha-satellite 171 bp DNA (dsDNA) DNA 1: CCGCTTTGAGGCCTTCGTTGGAAACGGGAATATGTTCACATAAAAACTAGACAGAAGCATTCTCAGAAACTTCTATGTGATGTTTGCATTCAACTCATAGAGTTGAACATTCCTTTTCATAGAGCAGTTTTGAAACACTCTTTTTGTAGTATCTGGAATTGGACATTTGGA DNA 2: TCCAAATGTCCAATTCCAGATACTACAAAAAGAGTGTTTCAAAACTGCTCTATGAAAAGGAATGTTCAACTCTATGAGTTGAATGCAAACATCACATAGAAGTTTCTGAGAATGCTTCTGTCTAGTTTTTATGTGAACATATTCCCGTTTCCAACGAAGGCCTCAAAGCGG,binding result,binds

# — doi:10.1101/2025.11.04.686567, “Models for the architecture of the human inner kinetochore CCAN complex on centromeric α-satellite CENP-A nucleosome arrays”
